The record followed here is publication PMC12661054 (2025).

Ends that are not written are not given here.

Test [1] concerns the target GST-TOPBP1(BRCT0-2 1-290) K250E (human, UniProt Q92547 1-290, K250E). The test can be described thus: FP.
The target in test [2] is T1, GST-TOPBP1(BRCT0-2 1-290) WT (human, UniProt Q92547 1-290).
T1 chain: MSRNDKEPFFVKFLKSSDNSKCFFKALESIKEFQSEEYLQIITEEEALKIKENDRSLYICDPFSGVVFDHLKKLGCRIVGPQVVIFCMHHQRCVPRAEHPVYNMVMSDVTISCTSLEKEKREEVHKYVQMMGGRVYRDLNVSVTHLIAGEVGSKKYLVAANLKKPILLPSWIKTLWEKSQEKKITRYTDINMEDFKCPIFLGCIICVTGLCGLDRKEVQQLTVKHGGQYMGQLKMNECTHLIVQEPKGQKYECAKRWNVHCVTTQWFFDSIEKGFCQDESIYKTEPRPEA
The test can be described thus: FP.

B1: Flu-SLX4_pT1260 (peptide)
peptide: fluorescein-GYGTSWLVPATPLASRSR
modifications: also: phosphothreonine at Thr1260, position in chain not mapped
By Kd is commonly meant the constant that tells how readily two partners part at equilibrium. Read a low Kd as a tighter complex. Consider B1, for which the Kd in test [1] was determined as 3.55 µM; in test [2], 3.29 µM.
